Assay results reported in patent publication US20210032312A1 (Janssen / Centocor, published 2021).
Substitutions are numbered along the chain they refer to. Blank lines part the entries; values can stand above or below the binder they belong to.

How the values were obtained:
[1] = target: T1, human CD8 alpha (CD8A) on primary human CD8+ T cells (human, UniProt P01732 22-235); experiment: flow cytometry, human CD8+ T cells, 0.2 uM FN3
T1 construct: whole, on cells; also called hCD8A
Description: (§1) Binding of the 190 ELISA hits to human and cynomologous monkey primary CD8 T cells was assessed by flow cytometry. The FN3 domain molecules were diluted to 2 μM and 0.2 μM in PBS and incubated with human or cynomologous monkey CD8+ T cells in 96-well format. After 1 hour at 4 C, the cells were washed once with PBS and then resuspended with an anti-FN3 domain antibody (PAB25) solution. Following this incubation, the cells were washed twice with PBS and a PE conjugated secondary antibody and a viability dye were added. Finally, cells were washed and resuspended in PBS for flow cytometric analysis using a BD Canto Instrument. Cells were gating on live cells and median fluorescence intensity of the bound Centyrins (PE channel) was calculated using Cytobank software.

[2] = target: T1, human CD8 alpha (CD8A) on primary human …; experiment: flow cytometry, human CD8+ T cells, 2 uM FN3
Description: as §1

In house human CD8A-Fc = target: T2, In house human CD8A-Fc (human, UniProt P01732 22-182, limits assumed); experiment: SPR (ProteOn), captured hCD8A-Fc
T2 construct: Captured on goat anti-human Fc on a ProteOn GLC chip; also called hCD8A-Fc; recombinant human CD8 alpha; not shown: linker with flag (and polyhistidine) tag and Fc of human IgG1
Description: Purified anti-CD8A FN3 domains were subjected to off-rate analysis using a Proteon surface plasmon resonance instrument in order to pick clones with the slowest off-rates for further characterization.
The immobilized GAH-Fc IgG densities averaged about 6000 Response Units (Ru) with less than 1% variation among different channels. In house human CD8A-Fc was captured in vertical orientation at 3 different ligand densities, 10, 5, 2.5 μg/ml for 5 minutes at 30 ul/minute flowrate. All FN3 domains were normalized to a 3 μM concentration, and tested for binding in horizontal orientation. All 6 analyte channels were used for FN3 domains to maximize the screening throughput. The dissociation phase was monitored for 15 minutes at a flow rate of 100 μl/min using PBST as running buffer. […] Data analyses were performed using Bio-Rad ProteOn Manager software (version 3.1.0.6). Raw data were double referenced by subtraction of the interspot (empty chip surface, no protein immobilized or captured) signals to correct the non-specific binding of the FN3 domain to the pre-coated GAH-Fc IgG surface, followed by a double correction using empty channel L6 where no hCD8A-Fc was captured. The processed binding data were locally fit to a 1:1 simple Langmuir binding model to extract the koff for each FN3 domain binding to captured hCD8A-Fc.

[3] = target: T3, cynomolgus monkey CD8A on primary cynomolgus monkey CD8+ T cells (cynomolgus monkey, UniProt P01732 23-235 (human entry)); experiment: flow cytometry, cyno CD8+ T cells, 0.2 uM FN3
T3 construct: also called Cyno CD8alpha
Description: as §1

[4] = target: T3, cynomolgus monkey CD8A on primary …; experiment: flow cytometry, cyno CD8+ T cells, 2 uM FN3
Description: as §1

T2 sequence (P01732 22-182 limits assumed): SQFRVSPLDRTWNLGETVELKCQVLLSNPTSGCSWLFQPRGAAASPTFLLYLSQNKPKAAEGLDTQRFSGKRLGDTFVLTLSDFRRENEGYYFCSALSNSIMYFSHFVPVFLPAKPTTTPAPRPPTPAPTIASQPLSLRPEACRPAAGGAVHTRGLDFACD
T1 sequence (P01732 22-235): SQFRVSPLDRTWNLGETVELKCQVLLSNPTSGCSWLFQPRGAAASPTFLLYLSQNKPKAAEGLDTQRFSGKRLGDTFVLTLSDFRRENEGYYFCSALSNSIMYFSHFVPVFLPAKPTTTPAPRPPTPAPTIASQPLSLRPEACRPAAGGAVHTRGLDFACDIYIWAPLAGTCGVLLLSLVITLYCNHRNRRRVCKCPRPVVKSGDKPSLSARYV
T3 sequence (P01732 other isoform, or with tags, fused parts or gaps limits assumed): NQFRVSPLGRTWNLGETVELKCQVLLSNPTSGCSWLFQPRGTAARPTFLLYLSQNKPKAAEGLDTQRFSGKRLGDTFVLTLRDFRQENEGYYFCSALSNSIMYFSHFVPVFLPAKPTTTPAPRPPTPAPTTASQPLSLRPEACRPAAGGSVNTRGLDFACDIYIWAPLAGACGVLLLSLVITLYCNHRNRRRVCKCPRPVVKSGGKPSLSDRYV

B3: P283AR9P1362_A4 (designed binder)
chain: LPAPKNLVVSRVTEDSARLSWIGHDSGFDSFLIQYQESEKVGEAIVLTVPGSERSYDLTGLKPGTEYTVSIYGVDVKYDIDSRPISSNPLSAIFTT
notes: FN3 domain
Human T-cell Binding 0.2 uM (MFI) [1]: 2540 MFI
Human T-cell Binding 2 uM (MFI) [2]: 6310 MFI
koff (In house human CD8A-Fc): 0.000302 s⁻¹
Cyno T-cell Binding 0.2 uM (MFI) [3]: 4400 MFI
Cyno T-cell Binding 2 uM (MFI) [4]: 21200 MFI

B4: P283AR9P1362_C12 (designed binder)
chain: B3 chain with I22A, G23K, H24N, D25L, S26H, G27S
notes: FN3 domain
Human T-cell Binding 0.2 uM (MFI) [1]: 2620 MFI
Human T-cell Binding 2 uM (MFI) [2]: 7060 MFI
koff (In house human CD8A-Fc): 9.94e-05 s⁻¹
Cyno T-cell Binding 0.2 uM (MFI) [3]: 3830 MFI
Cyno T-cell Binding 2 uM (MFI) [4]: 14800 MFI

B7: P283BR9P1363_C8 (designed binder)
chain: LPAPKNLVVSRVTEDSARLSWAKTSDLHPLFDSFLIQYQESEKVGEAIVLTVPGSERSYDLTGLKPGTEYTVSIYGVDVKWEGNRPVASNPLSAIFTT
notes: FN3 domain
Human T-cell Binding 0.2 uM (MFI) [1]: 3740 MFI
Human T-cell Binding 2 uM (MFI) [2]: 16500 MFI
koff (In house human CD8A-Fc): 0.000335 s⁻¹
Cyno T-cell Binding 0.2 uM (MFI) [3]: 9080 MFI
Cyno T-cell Binding 2 uM (MFI) [4]: 37200 MFI

B10: P283BR9P1363_B6 (designed binder)
chain: B7 chain with A22Q, K23R, T24H, L27A
notes: FN3 domain
Human T-cell Binding 0.2 uM (MFI) [1]: 3450 MFI
Human T-cell Binding 2 uM (MFI) [2]: 14500 MFI
koff (In house human CD8A-Fc): 0.000269 s⁻¹
Cyno T-cell Binding 0.2 uM (MFI) [3]: 6840 MFI
Cyno T-cell Binding 2 uM (MFI) [4]: 37700 MFI

B11: P282BR9P1357_H3 (designed binder)
chain: B7 chain with A22K, T24R, S25E, D26Y, L27Q, H28D, L30G
notes: FN3 domain
Human T-cell Binding 0.2 uM (MFI) [1]: 3030 MFI
Human T-cell Binding 2 uM (MFI) [2]: 11100 MFI
koff (In house human CD8A-Fc): 0.000285 s⁻¹
Cyno T-cell Binding 0.2 uM (MFI) [3]: 5700 MFI
Cyno T-cell Binding 2 uM (MFI) [4]: 27100 MFI

B12: P282BR9P1357_A9 (designed binder)
chain: LPAPKNLVVSRVTEDSARLSWKANRTTDLHFDSFLIQYQESEKVGEAIVLTVPGSERSYDLTGLKPGTEYTVSIYGVDVQYDGQQPLYSNPLSAIFTT
notes: FN3 domain
Human T-cell Binding 0.2 uM (MFI) [1]: 1070 MFI
Human T-cell Binding 2 uM (MFI) [2]: 3120 MFI
koff (In house human CD8A-Fc): 0.00059 s⁻¹
Cyno T-cell Binding 0.2 uM (MFI) [3]: 1940 MFI
Cyno T-cell Binding 2 uM (MFI) [4]: 7280 MFI

Second part, the binder after the results:

Human T-cell Binding 0.2 uM (MFI) [1]: 2010 MFI
Human T-cell Binding 2 uM (MFI) [2]: 6180 MFI
koff (In house human CD8A-Fc): 0.000327 s⁻¹
Cyno T-cell Binding 0.2 uM (MFI) [3]: 2840 MFI
Cyno T-cell Binding 2 uM (MFI) [4]: 15900 MFI
B1: P283AR9P1362_E9 (designed binder)
chain: B3 chain with I22V, G23P, H24S, D25P, S26W
notes: FN3 domain

Human T-cell Binding 0.2 uM (MFI) [1]: 2620 MFI
Human T-cell Binding 2 uM (MFI) [2]: 8970 MFI
koff (In house human CD8A-Fc): 7.28e-05 s⁻¹
Cyno T-cell Binding 0.2 uM (MFI) [3]: 3790 MFI
Cyno T-cell Binding 2 uM (MFI) [4]: 26300 MFI
B2: P283AR9P1362_F12 (designed binder)
chain: B3 chain with I22A, G23R, H24N, D25I, S26T, G27S
notes: FN3 domain

Human T-cell Binding 0.2 uM (MFI) [1]: 3660 MFI
Human T-cell Binding 2 uM (MFI) [2]: 13700 MFI
koff (In house human CD8A-Fc): 2.64e-05 s⁻¹
Cyno T-cell Binding 0.2 uM (MFI) [3]: 7720 MFI
Cyno T-cell Binding 2 uM (MFI) [4]: 33500 MFI
B5: P283AR9P1362_D6 (designed binder)
chain: B3 chain with I22A, G23K, H24R, D25P, S26G, G27A
notes: FN3 domain

Human T-cell Binding 0.2 uM (MFI) [1]: 3530 MFI
Human T-cell Binding 2 uM (MFI) [2]: 12700 MFI
koff (In house human CD8A-Fc): 0.000102 s⁻¹
Cyno T-cell Binding 0.2 uM (MFI) [3]: 6830 MFI
Cyno T-cell Binding 2 uM (MFI) [4]: 32500 MFI
B6: P283AR9P1362_G11 (designed binder)
chain: B3 chain with I22R, G23K, H24E, D25A, S26T, G27S
notes: FN3 domain

Human T-cell Binding 0.2 uM (MFI) [1]: 2500 MFI
Human T-cell Binding 2 uM (MFI) [2]: 10800 MFI
koff (In house human CD8A-Fc): 0.000329 s⁻¹
Cyno T-cell Binding 0.2 uM (MFI) [3]: 2470 MFI
Cyno T-cell Binding 2 uM (MFI) [4]: 17700 MFI
B8: P283BR9P1363_E4 (designed binder)
chain: B7 chain with A22I, T24S, S25E, D26T, L27S, H28Q, L30A
notes: FN3 domain

Human T-cell Binding 0.2 uM (MFI) [1]: 4220 MFI
Human T-cell Binding 2 uM (MFI) [2]: 16800 MFI
koff (In house human CD8A-Fc): 0.000127 s⁻¹
Cyno T-cell Binding 0.2 uM (MFI) [3]: 7060 MFI
Cyno T-cell Binding 2 uM (MFI) [4]: 41600 MFI
B9: P282BR9P1357_C4 (designed binder)
chain: B7 chain with K5N, A22P, K23F, T24V, D26Q, L27N, H28K, L30H
notes: FN3 domain
